The results in this text go back to patent publication US20020127702A1 (University of California, published 2002).

B1: hCdc5 central domain (amino acids 365-501), His6 fusion (other)
chain: EAQNLMALTNVDTPLKGGLNTPLHESDFSGVTPQRQVVQTPNTVLSTPFRTPSNGAEGLTPRSGTTPKPVINSTPGRTPLRDKLNINPEDGMADYSDPSYVKQMERESREHLRLGLLGLPAPKNDFEIVLPENAEKE
notes: Expressed and purified in E. coli as a His6 fusion; not shown: His6 tag
B2: hCdc5 DNA binding domain (amino acids 1-120), His6 fusion (other)
chain: MPRIMIKGGVWRNTEDEILKAAVMKYGKNQWSRIASLLHRKSAKQCKARWYEWLDPSIKKTEWSREEEEKLLHLAKLMPTQWRTIAPIIGRTAAQCLEHYEFLLDKAAQRDNEEETTDDP
notes: Expressed and purified in E. coli as a His6 fusion; also called helix-turn-helix domain; not shown: His6 tag
B3: hCdc5 carboxyl terminal domain (amino acids 491-802), His6 fusion (other)
chain: EIVLPENAEKELEEREIDDTYIEDAADVDARKQAIRDAERVKEMKRMHKAVQKDLPRPSEVNTEILRPLNVEPPLTDLQKSEELIKKEMITMLHYDLLHHPYEPSGNKKGKTVGFGTNNSEHITYLEHNPYEKFSKEELKKAQDVLVQEMEVVKQGMSHGELSSEAYNQVWEECYSQVLYLPGQSRYTRANLASKKDRIESLEKRLEINRGHMTTEAKRAAKMEKKMKILLGGYQSRAMGLMKQLNDLWDQIEQAHLELRTFEELKKHEDSAIPRRLECLKEDVQRQQEREKELQHRYADLLLEKETLKSKF
notes: as for B1
B4: hCdc5 putative nuclear localization domain (amino acids 205-358), His6 fusion (other)
chain: KRGVDYNAEIPFEKKPALGFYDTSEENYQALDADFRKLRQQDLDGELRSEKEGRDRKKDKQHLKRKKESDLPSAILQTSGVSEFTKKRSKLVLPAPQISDAELQEVVKVGQASEIARQTAEESGITNSASSTLLSEYNVTNNSVALRTPRTPAS
notes: as for B1

Data set [1] concerns the molecule itself. Nature of the data set: glutaraldehyde cross-linking of purified His6 fusion.
The target of data set [2] is B4. Nature of the data set: glutaraldehyde cross-linking of purified His6 fusions.
Data set [3] addresses B1. The description is as above.
Data set [4] concerns the molecule itself. The data set is described as follows: glutaraldehyde cross-linking of purified His6 fusion, SDS-PAGE and anti-His immunoblot.
For data set [5], the target named is B2. The data set is described as follows: glutaraldehyde cross-linking of purified His6 fusions.

In the case of B1, the binding result in data set [1] and in data set [2] was “no binding” each time.
With B2, the binding result in data set [2] was “no binding”; in data set [3], “no binding”; in data set [4] it was “binds”.
With B3, the binding result in data set [1], in data set [5], in data set [2] and in data set [3] was “no binding” each time.
For the molecule B4, the binding result in data set [4] was “binds”.
